Measured values taken from paper PMC2148214 (The Journal of Cell Biology, 1999).

Biological target: the molecule itself
Experiment: velocity gradient sedimentation

B1: wild-type HTLV-1 envelope precursor glycoprotein (natural protein, UniProt P03381 21-488, looked up)
chain: DYSPSCCTLTIGVSSYHSKPCNPAQPVCSWTLDLLALSADQALQPPCPNLVSYSSYHATYSLYLFPHWTKKPNRNGGGYYSASYSDPCSLKCPYLGCQSWTCPYTGAVSSPYWKFQHDVNFTQEVSRLNINLHFSKCGFPFSLLVDAPGYDPIWFLNTEPSQLPPTAPPLLPHSNLDHILEPSIPWKSKLLTLVQLTLQSTNYTCIVCIDRASLSTWHVLYSPNVSVPSSSSTPLLYPSLALPAPHLTLPFNWTHCFDPQIQAIVSSPCHNSLILPPFSLSPVPTLGSRSRRAVPVAVWLVSALAMGAGVAGGITGSMSLASGKSLLHEVDKDISQLTQAIVKNHKNLLKIAQYAAQNRRGLDLLFWEQGGLCKALQEQCRFPNITNSHVPILQERPPLENRVLTGWGLNWDLGLSQWAREALQTGITLVALLLLVILAGPCILRQLRHLPSRVRYPHYSLIKPESSL
stoichiometry N: 2
